Several values for one entry are separate records, joined by “and”; a condition that tells them apart may be missing. Identical values can stand only once.
T1: recombinant soluble human GPVI (GPVI-Fc) (human, UniProt Q9HCN6 21-267)
T1 construct: extracellular domain; also called soluble recombinant GPVI; purified GPVI; not shown: human Ig Fc domain
T1 sequence (looked up): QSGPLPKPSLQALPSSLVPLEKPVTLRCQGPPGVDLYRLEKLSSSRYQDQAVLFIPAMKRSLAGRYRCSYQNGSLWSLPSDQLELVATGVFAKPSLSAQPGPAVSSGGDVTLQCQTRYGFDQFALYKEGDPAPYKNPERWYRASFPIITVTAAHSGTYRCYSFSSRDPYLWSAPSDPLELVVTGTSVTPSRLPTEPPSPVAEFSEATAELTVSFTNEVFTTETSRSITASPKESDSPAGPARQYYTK


Columns and labels:
[1] = target: human glycoprotein VI on human platelets (human) (UniProt Q9HCN6); test: flow cytometry, periplasmic extract on human platelets, FITC anti-c-myc
[2] = target: human glycoprotein VI on human platelets (human) (UniProt Q9HCN6); test: flow cytometry of washed human platelets with an irrelevant scFv, FITC-coupled anti-c-myc IgG [top panel]
[3] = target: human glycoprotein VI on human platelets (human) (UniProt Q9HCN6); test: flow cytometry of human platelets with bacterial periplasmic extract, FITC-coupled anti-c-myc antibody [upper panel]
[4] = target: T1, recombinant soluble human GPVI (GPVI-Fc); test: inhibition of GPVI-Fc binding to immobilized collagen, ELISA
Method: (§1) FIG. 9. Inhibition of GPVI binding to immobilized collagen. GPVI-Fc was incubated on immobilized collagen in the presence of increasing amounts of antibodies: scFv 9O12.2 (triangle), or pFab (square) (A): 2 μg of GP VI-Fc; (B): 4 μg of GPVI-Fc Bound GPVI-Fc was detected using an HRP coupled anti-Fc IgG.

[5] = target: T1, recombinant soluble human GPVI (GPVI-Fc); test: blocking ELISA: 4 µg GPVI-Fc on immobilized collagen with increasing antibody fragment; blocked ligand: fibrillar type I collagen; bound GPVI-Fc detected with HRP-coupled anti-Fc
Method: as §1

[6] = target: T1, recombinant soluble human GPVI (GPVI-Fc); test: SPR (BIAcore 2000), GPVI-Fc immobilized on CM5, second series
Method: (§2) Binding of the anti-GPVI scFv to recombinant GPVI-Fc is analyzed with surface plasmon resonance using a BIAcore 2000 system (Uppsala, Sweden). Binding studies is performed with scFv 9O12, Proteolytic Fab and parental IgG.
(§3) Recombinant GPVI-Fc is immobilized (˜600 RU) onto a Carboxy-Methyl Dextran CM5 sensor chip using the amine coupling method (Wizard procedure). Antibody is then passed over the immobilized recombinant GPVI-Fc in HBS-EP buffer (0.01 M HEPES pH 7.4, 0.15 M NaCl, 0.005% polysorbate 20 (v/v)) at a flow rate of 20 μl/min at 25° C. Kinetic constants (kₐ, kd) and affinity are determined using BIAevaluation version 3.1 software, by fitting data to binding model. HBS-EP is the running buffer. 10 mM glycine-HCl pH 2.5 injected for 30 s at 20 μl/min is the regeneration buffer. All reagents and buffers used are from Biacore.

[7] = target: T1, recombinant soluble human GPVI (GPVI-Fc); test: SPR (BIAcore 2000), GPVI-Fc immobilized on CM5, first series
Method: as §2, §3

[8] = target: T1, recombinant soluble human GPVI (GPVI-Fc); test: competition ELISA on GPVI-Fc coated plates; competitor: scFv 9O12.2 at a fixed concentration (60 µg/mL in the legend, 100 µg/ml in the methods), bound scFv detected with HRP-coupled anti-c-myc
[9] = target: T1, recombinant soluble human GPVI (GPVI-Fc); test: SPR against immobilized GPVI (procedure as in Example 1)

Row | Molecule | IC50 [4] | IC50 (read off the curve) [5] [µg/mL] | Kd [6] [nM] | Kd [7] [nM] | further results
1 | irrelevant scFv (c-myc tagged negative control) |  |  |  |  | % positive platelets [1]: 0.17%; % positive platelets (FITC count) [2]: 0.17%; % positive platelets (FITC count) [3]: 0.03%
2 | 9O12.2 Fab fragment prepared by papain digestion of the parental IgG (Fab, V domains shown, Papain Fab of the murine IgG1 kappa antibody; also called Fab 9O12.2; Fab 9O12) VH: QVQLQESGAELVKPGASVKMSCKASGYTFTSYNMHWVKQTPGQGLEWIGGIYPGNGDTSFNQKFKGKATLTADKSSRTAYMQLSSLTSEDSAVYYCARGTVVGDWYFDVWGAGTTLTVSS VL: DVLMTQTPLSLPVSLGDQASISCRSSQSLENSNGNTYLNWYLQKPGQSPQLLIYRVSNRFSGVLDRFSGSGSGTDFTLKISRVEAEDLGVYFCLQLTHVPWTFGGGTKLEIK | 2.1 µg/mL and 15 nM | ~7 | 2.3 | 4.5 | 
3 | 9O12.2 monoclonal anti-human GPVI antibody (murine IgG1, kappa) (antibody, V domains shown, The VL is therefore written as 136-247; also called 9O12.2 IgG; IgG 9O12.2) VH: QVQLQESGAELVKPGASVKMSCKASGYTFTSYNMHWVKQTPGQGLEWIGGIYPGNGDTSFNQKFKGKATLTADKSSRTAYMQLSSLTSEDSAVYYCARGTVVGDWYFDVWGAGTTLTVSS VL: DVLMTQTPLSLPVSLGDQASISCRSSQSLENSNGNTYLNWYLQKPGQSPQLLIYRVSNRFSGVLDRFSGSGSGTDFTLKISRVEAEDLGVYFCLQLTHVPWTFGGGTKLEIK |  |  | 4 | 6.5 | IC50 (read off the curve) [8]: ~20 µg/mL
4 | murine single chain variable fragment scFv 9O12.2 (VH-(Gly4Ser)3-VL, spacer, c-myc flag) (scFv, Made in the E. coli periplasm through a pelB leader; Tested as periplasmic extract or after purification on GPVI-sepharose; The monomer was isolated by size exclusion for the aggregation assay; also called mscFv 9O12.2; mscFv 9O12) scFv: QVQLQESGAELVKPGASVKMSCKASGYTFTSYNMHWVKQTPGQGLEWIGGIYPGNGDTSFNQKFKGKATLTADKSSRTAYMQLSSLTSEDSAVYYCARGTVVGDWYFDVWGAGTTLTVSSGGGGSGGGGSGGGGSDVLMTQTPLSLPVSLGDQASISCRSSQSLENSNGNTYLNWYLQKPGQSPQLLIYRVSNRFSGVLDRFSGSGSGTDFTLKISRVEAEDLGVYFCLQLTHVPWTFGGGTKLEIKRSRVTVSSEQKLISEEDLN | ~1.17 µg/mL and ~42 µM | ~4 | 2.6 | 2.5 | koff [6]: 0.00017 s⁻¹; kon [6]: 65000 M⁻¹ s⁻¹
5 | second optimized humanized scFv 9O12.2 fragment, hscFv 9O12.2(2) (scFv, Murine VL FR1 and FR2 are kept; Detected through its c-myc flag) scFv: QVQLQESGAEVKKPGASVKVSCKASGYSFTSYNMHWVRQAPGQRLEWMGGIYPGNGDTSFNQKFKGKATLTADKSSRTAYMGLSSLRPEDTAVYYCARGTVVGDWYFDVWGQGTLVTVSSGGGGSGGGGSGGGGSDVLMTQTPLSLPVSLGDQASISCRSSQSLENSNGNTYLNWYLQKPGQSPQLLIYRVSNRFSGVLDRFSGSGSGTDFTLTISSLQPEDFAIYYCLQLTHVPWTFGGGTKVEIKRSRVTVSSDQKLISEEDLN |  |  |  |  | Kd [9]: 3.2 nM; koff [9]: 0.000186 s⁻¹; kon [9]: 58000 M⁻¹ s⁻¹
